These results are taken from patent US20120121633A1, “HIV CD4 BINDING SITE BASED COVALENT IMMUNOGEN COMPOSITIONS” (priority 2010, published 2012).

Residue numbers refer to the chain shown, from its start.

In experiment [1] the test system is subtype C clinical HIV isolate ZA009 (97ZA009). As to the kind of experiment: HIV neutralization, PBMC/clinical isolate assay, strain ZA009. The following applies: MAb clones from KLH-E-416-433 immunized mice. Type of experiment: cell-based. The source says: FIG. 12. […] A, 416-433 and 301-324 epitope sequences from the autologous subtype B strain of IgA donor 2866 and heterologous subtype C strain ZA009 used for neutralization assays. […] Host cells, PBMCs; virus isolate, R5-dependent subtype C strain ZA009. IC50, 50% neutralization concentration. Dashed lines, 95% confidence limits. […] Pooled IgA (I19-21 donors 2857, 2866 and 2886) was fractionated on agarose-conjugated as in FIG. 8. […] Host cells, PBMCs; virus, strain ZA009.
FIG. 19. […] Abs were fractionated by affinity chromatography on agarose-conjugated E-416-433. Plotted are the neutralization potencies (IC50) expressed per unit mass Ab content (sum of IgM, IgG and IgA measured by ELISA using class-specific Abs as in FIG. 8). IC50 computed from dose-response curves using the CCR5-dependent subtype C strain 97ZA009. […] Noncovalently and covalently bound fractions were recovered, respectively, by pH 2.7 elution and 2-PAM elution.
Neutralization of clinical HIV isolates obtained from the NIH AIDS Reagent Repository is tested using phytohemagglutinin-activated human PBMCs pooled from 4-12 donors.^44 The virus is incubated with the test Ab sample in quadruplicate to ensure reliability. The reaction mixtures are added to PBMCs in 96-well plates. Infection is monitored using p24 enzyme-immunoassay kits. […] The stock HIV strain ZA009 is used to infect PBMC in the presence of the Ab. Infection proceeds overnight and cells are washed and resuspended in RPMI media containing the Ab. After 7 days the cell-free supernatant is harvested and used to infect a new aliquot of stimulated PBMCs (second passage). The virus is passaged 10 times with a gradual (2-fold) increase in Ab concentration with each passage. A virus aliquot is saved at each passage for sequencing.^112 Viral supernatants are titered at each passage using a fresh batch of PBMCs. The gp120 gene will sequenced following RT-PCR as described.^113

In the next experiment the target is BSA-E-416-433 (Human immunodeficiency virus type 1 group M subtype B, UniProt P04578, C418S/K429E). Particulars: inhibited by gp120, Bt-E-416-433 and sCD4, not by Sh416-433 or ovalbumin. On the procedure: FIG. 21. […] IgM 2G9 binding to BSA-E-416-433 (70 ng/well) was tested in the absence or presence of increasing concentrations of Bt-E-416-433, sCD4, gp120, control Sh416-433 and control ovalbumin (OVA). Y-axis values are computed as follows 100x[A490 with competitor/A490 without competitor]. Methods as in ref 2.

B1: 4B2-F8: murine IgG MAb from KLH-E-416-433 immunization (antibody, V domains shown)
VH: QVQLQQSGAELVRPGASVKLSCMALGYTFTDYEIHWVKQTPVHGLEWIGGFHPGSGGGAYSQKFKGKATLIADKSSSIAYMEVISLTSEDSAVYYCTRFRYSSFAMVYWGQGTSVTVSS
VL: DIVMSQSPSSLAVSAGEKVTMSCKSSQSLLNSRTRKNYLAWYQQKPGQSPKLLIYWASTRESGVPDRFTGSGSGTDFTLTINSVQAEDLAVYYCKQSYNLWTFGGGTKLEIK
B1: the “HIV neutralizing activity” value in experiment [1] was “neutralizing activity”.

B2: 9F3-A7: murine IgG MAb from KLH-E-416-433 immunization (antibody, V domains shown)
VH: QVQLQQSGAELVRPGASVKLSCKALGYTFTDYEMHWVKQTPVHGLEWIGGIYPGSGGTAYNQKFKGKATLTADKSSSTAYMELSSLTSEDSAVYYCTKFRFSSFAMDYWGQGTSVTVSS
VL: B1 VL with S22R, N82S, S97F
Take B2: in experiment [1], the “HIV neutralizing activity” value is reported as “neutralizing activity”.

B3: 2G9: murine IgM MAb from KLH-E-416-433 immunization (antibody, V domains shown)
VH: QVQLKQSGPGLVQPSQSLSITCTVSGFSLTSYGVHWVRQSPGKGLEWLGVIWSGGSTDYNAAFISRLSISKDNSKSQVFFKMNSLQANDTAIYYCARNKDYGSSYDYYAMDYWGQGTSVTVSS
VL: DIQMTQTTSSLSASLGDRVTISCRASQDISNYLNWYQQKPDGTVKLLIYYTSRLHSGVPSRFSGSGSGTDYSLTISNLEQEDIATYFCQQGNTLPTFGGGTKLEIKRA
Turning to B3, the “HIV neutralizing activity” value in experiment [1] was “neutralizing activity”. Further, the “specificity of binding shown by competitive inhibition” value with BSA-E-416-433 was “Specificity for 421-433 CD4BS sequence”.
